The text below walks through data of the supplement of paper PMC12042874.

± gives the uncertainty stated by the source.

The nature of the series: amyloid nucleation score (Sup35N fusion, yeast selection) (log enrichment); library NNK3; higher = more nucleation; inactive = no reads after selection. An outline of the steps: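 Growth for 7 days at 30°C on medium lacking adenine and uracil followed a 24-hour induction with 100 μM copper sulfate of psi-negative yeast expressing peptides of 20 random codons fused to Sup35N. Input and output plasmid inserts were sequenced with Illumina, and sequences with under 100 input reads were excluded. Nucleation score is the DiMSum log enrichment of output over input reads, centred on the mode score of non-aggregating sequences.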
With LICNCHPRESSDPTFLCGLG, the amyloid nucleation score result is “inactive”. Consider KWVFYYDRRVDSLLARMFLC, for which the amyloid nucleation score entry is “inactive”. Under CESRP stands “inactive”; under TVAMR, “inactive”.

Turning to PKEYTRAGNVSSRRGLFYHF, the amyloid nucleation score entry was “inactive”. As for TNGKEWWNCVYGERTVNAFA, the entry is “inactive”; as for YLIYDRLSIQPDSSHHLVV, -0.124 ± 0.62; as for SRWVIGHVNTGSGGLESDKR, “inactive”.

In the case of CKSDFCISNVLWLYGLKFQR, the amyloid nucleation score entry was “inactive”. As for KCMGVSWLSNIVRSIRVIIS, the entry is “inactive”; as for HIFSKVSYNFEFPRNDCCRY, “inactive”; as for TKTHCFLLLSGVCVGRVLGW, “inactive”. As for RIITLNRHIRRVFRMGCRSM, the entry is “inactive”; as for LVFSRACTLVDTIE, “inactive”; as for RNSTMIYTQ, 2.24 ± 0.093.

Consider CMFKGHAELLRWVL, for which the amyloid nucleation score entry was “inactive”. As for IDRSLLSGFSNLHICSICCT, the figure is 1.2 ± 0.12. As for SLMKGCTLLDSFRLRKP, the entry is “inactive”; as for LVNELAQVVVCLGSRSTVLG, “inactive”. For the substance QNFPSTSHFNIYC, the amyloid nucleation score came out at 1.72 ± 0.094. As for VICFFTTNAEHLQFLV, the entry is “inactive”; as for SDRLS, “inactive”. As for DQAIVLVNFVSASSVPPKIF, the figure is 0.498 ± 0.25. With QWRIRSWHMYDSSLARGLD, the amyloid nucleation score entry was “inactive”. On to LLTYHTSGYSCWSEG, for which the amyloid nucleation score entry was “inactive”. Under LTSLSKSFCNNVHAYSDFLH stands “inactive”. Under FCRMVPLIEWSVTRFRDCVG stands “inactive”; under MNLVSSIVNYCFGRWGWLVG, “inactive”. Consider LSCYRVFSYCT, for which the amyloid nucleation score entry was “inactive”. As for YVVVLMSLHWRNWGALRRTC, the entry is “inactive”. Under SMFRSRFLKVRDVSTTSQCA stands “inactive”. Turning to IVFNGLRSMNRE, the amyloid nucleation score entry is “inactive”. As for WCTAAM, the entry is “inactive”; as for CGGGALLDICLPFICPVNGL, 0.843 ± 0.19. Regarding RRAGNKWYVR, the amyloid nucleation score entry is “inactive”.

For the substance FFYSVLCLLRAVLVDSNLGW, the amyloid nucleation score entry was “inactive”. Under KIMNSKNVLRHFSLGQWLHG stands “inactive”.

For the substance GLVCFYTGLDVMLDTREFYR, the amyloid nucleation score entry was “inactive”. Under VSDILADCPIIRPGGYCCVS stands “inactive”; under CISRKFFSVRSVYLWYVSAT, “inactive”; under TPSLAIKK, “inactive”. As for IYYIDL, the entry is “inactive”; as for TNNEDKFWRVVLNLGTVTSD, “inactive”; as for TLTWHNVWGCICGKFLTV, “inactive”. As for LQLRSLF, the entry is “inactive”; as for RYMHGYCILET, “inactive”; as for MIPCLHEFLYLNSWDNKVGL, “inactive”.

With TYGGLFLVHTVYVVALNWVR, the amyloid nucleation score entry was “inactive”.

FLINPFVWFNNYSFTAF registered an amyloid nucleation score of 0.929 ± 0.14. As for ESKTCVVHLSAKCSLSEERT, the entry is “inactive”; as for YCDNYYSLMSTTEEFPRVCV, “inactive”; as for IVERKVRPAHFYYSLVYEQS, “inactive”. As for FVRVALMYFVLKLTSRYKRN, the entry is “inactive”; as for IAMSRSACRYVFECYIYFFF, “inactive”; as for LWHGIICFCFLAYSWGKSAV, “inactive”. Substance NWDRTIMCMYY registered an amyloid nucleation score of 2.08 ± 0.075. Regarding REKTWFCSFIVTLGVCGWDG, the amyloid nucleation score result is “inactive”. As for FYYNVRLRRAGWAYRITWTT, the entry is “inactive”; as for IFSFTLSLSFGVFLNMFSVD, “inactive”; as for ISCIGPFCSTIPLIKLNLIE, 1.3 ± 0.1. Regarding NFTVFYLRC, the amyloid nucleation score came out at 1.67 ± 0.12.

Regarding RHRLAHMRNKWRGQVHCPKG, the amyloid nucleation score entry was “inactive”. As for WEGMNNKIRAYAYIATLVYT, the entry is “inactive”. As for YSKCNRIFFTEDLF, the figure is -0.295 ± 0.8; as for KMSSHFV, “inactive”; as for AARISRGVPWYGQEMKGRVR, “inactive”. Under IETAGSTHSSTWGDYSNRLC stands “inactive”; under MLIYSIVLGFKFSPPGFTSN, “inactive”. On to FRVNKRHQYEEHVLLENLVF, for which the amyloid nucleation score entry was “inactive”.

Take GFTFNGF: the amyloid nucleation score entry is “inactive”.

Consider DVEFI, for which the amyloid nucleation score result is “inactive”.

For CRSGCQ, the amyloid nucleation score entry was “inactive”. Under VMCLVSRPPQWSVLDVSTIM stands “inactive”; under WVQHISLWSTMWNGPREAPM, “inactive”; under STVCWHMQRVASTVAL, “inactive”. Under DILEVIDIF stands “inactive”.

Take FCFKSLALELPIQKY: the amyloid nucleation score result is “inactive”. As for ICSLCEHSFVRVNGMYWHRE, the figure is 2.02 ± 0.092; as for SVIVTYVWVTAVVQGEYSTK, -0.095 ± 0.55; as for HTRWLGYNSHRGYLFLMSKF, 0.104 ± 0.9. Under KMCDECIVLS stands “inactive”. Under PDKVWMYCQHICAVKMSLIC stands “inactive”. In turn, FIILQFVGFLHNTGFWYQLG came in with an amyloid nucleation score of 0.217 ± 0.25. As for LAAIDERPS, the entry is “inactive”. Under NSISSSRIAVNFAKYGNWDV stands “inactive”; under LMIEGLSDIHVLMAVSPERG, “inactive”; under YTFRCIYRADYNTP, “inactive”.

Consider RIMLVYCMGSRGIAMFCQHN, for which the amyloid nucleation score result is “inactive”. The substance NIYYLCSFLSWLTMG came in with an amyloid nucleation score of 2.36 ± 0.049. As for ICAVFWDCMISRSCDTALYS, the entry is “inactive”; as for VEELKYRHNALNFRKNVQSL, “inactive”; as for DTITRSTWIVCWRTE, “inactive”.

As for VNDVLASLTLCMWLVEWGMK, the amyloid nucleation score entry was “inactive”. Take YKRFMIPIKYCGGQRNTDVR: the amyloid nucleation score result is “inactive”. As for CPGVHWHDVK, the entry is “inactive”; as for LNEFIKYLDICKFFSCSGRN, 1.61 ± 0.1. As for ADRVSVIYMS, the entry is “inactive”; as for SFLTKSQKTNCGSLKEMCVG, “inactive”. Take PFWSGMIPIIEDPISGAL: the amyloid nucleation score entry was “inactive”. Regarding FLIDDMYWSVMDTWI, the amyloid nucleation score result is “inactive”. Under NIVISYPP stands 0.749 ± 0.11; under QCSIFIIC, 2.41 ± 0.076. As for FRRSVK, the entry is “inactive”. Under TKAAMPRNNYLFILY stands -0.278 ± 0.71; under PTELYFHPDI, “inactive”.

In turn, CFLVTVSSGTASMQVLGRSG came in with an amyloid nucleation score of 1.23 ± 0.14. Under GVLSYNMIHT stands “inactive”; under TVYSRHIDRGYWIADGCSRV, “inactive”; under FDVVVIYATGVCFLATYYQG, “inactive”. Regarding FMWCYMKYCAVHAFDLSWKV, the amyloid nucleation score entry is “inactive”.

For SKLWSYWDLSWLTLKVGWLR, the amyloid nucleation score entry is “inactive”. KYYWFMF had an amyloid nucleation score of 1.78 ± 0.096. As for SRVRNDWYRVKVMGANVVGY, the entry is “inactive”. As for NSCQGE, the entry is “inactive”. As for LVTPSSTALFWSNFLWSELP, the entry is “inactive”; as for TDVVSSVILRYSFFGHVNEF, “inactive”. Regarding KWYRWCMYADDIESHLFGAL, the amyloid nucleation score result is “inactive”. As for LRVPSPYIFYKSKGHNIGSL, the entry is “inactive”. Under NLVAMVYSLLSSNWKEVISK stands -0.406 ± 0.8; under GVTLTTLDSLSDFGWLIE, “inactive”. For the substance RSDLCFC, the amyloid nucleation score result was “inactive”.

Take GGEGLVRQA: the amyloid nucleation score result was “inactive”. As for RDNWSVNLDTKHDLSIAGKL, the entry is “inactive”; as for FTSNAESTLWTRPRNYRNVS, “inactive”; as for DSSKFLLTCHLWCG, “inactive”. Under IAGFRNGSPANNAVGKPG stands “inactive”. Under KRYYYCHGSSL stands “inactive”; under LMLGYLKYLYGAANRICYRS, “inactive”. Regarding ASGVPIADYTNTLKRWWLSE, the amyloid nucleation score result is “inactive”. In the case of HALFGYISRVDNLYSSMVSH, the amyloid nucleation score entry was “inactive”.

Take STLRWLR: the amyloid nucleation score entry is “inactive”.
